# Marks after values point to notes of the source that are not given here.
# What was measured:
# Assay type in all cases: physicochemical
# [1] = Sodium ascorbate concentration optimization: radio-TLC purity; details: sodium ascorbate 200 mM, 0.02 mCi/ml, 0.05 mg/ml DTPA, 25° C.
# Experimental: (§1) The mixture was kept at room temperature (25° C.). At different time points, radioactive components of the formulated dose were measured by radio-TLC as described in the table below: […]
# [2] = Dextran ratio optimization: radio-TLC purity; details: 25 μCi/ml
# Experimental: as §1
# [3] = EGCg concentration: radio-TLC purity; details: 25 μCi/ml, 100 mM sodium ascorbate pH 5.80, 0.05 mg/ml DTPA, saline, 25° C.
# Experimental: as §1
substance,measurement,setting,value
"(2,2′,2″-(10-(2-4(R)-1-(((4R,7S,10S,13R,16S,19R)-13-((1H-indol-3-yl)methyl)-10-(4-aminobutyl)-4-(((1S,2R)-1-carboxy-2-hydroxypropyl)carbamoyl)-16-(4-hydroxybenzyl)-7-((R)-1-hydroxyethyl)-6,9,12,15,18-pentaoxo-1,2-dithia-5,8,11,14,17-pentaazacycloicosan-19-yl)amino)-1-oxo-3-phenylpropan-2-yl)amino)-2-oxoethyl)-1,4,7,10-tetraazacyclododecane-1,4,7-triyl)triacetate; actinium-225(3+)) [[^225Ac]Ac-DOTA-TATE]",Percentage of ^225Ac present in [^225Ac]Ac-DOTA-TATE,[1]; 48 hours,97.12%
same,Percentage of ^225Ac present in [^225Ac]Ac-DOTA-TATE,[1]; 72 hours,95.63%
same,Percentage of ^225Ac present in [^225Ac]Ac-DOTA-TATE,[1]; 96 hours,95.51%
same,Percentage of ^225Ac present in [^225Ac]Ac-DOTA-TATE,[1]; 120 hours,94.38%
same,Percentage of ^225Ac present in [^225Ac]Ac-DOTA-TATE,[1]; 144 hours,91.27%
same,Percentage of ^225Ac present in [^225Ac]Ac-DOTA-TATE,"[2]; Dextran 0% w/w, 0 hour, 100 mM sodium ascorbate, 0.05 mg/ml DTPA, saline, pH 5.80, 25° C.",99.90%
same,Percentage of ^225Ac present in [^225Ac]Ac-DOTA-TATE,"[2]; Dextran 0% w/w, 24 hours, 100 mM sodium ascorbate, 0.05 mg/ml DTPA, saline, pH 5.80, 25° C.",99.42%
same,Percentage of ^225Ac present in [^225Ac]Ac-DOTA-TATE,"[2]; Dextran 0% w/w, 48 hours, 100 mM sodium ascorbate, 0.05 mg/ml DTPA, saline, pH 5.80, 25° C.",98.73%
same,Percentage of ^225Ac present in [^225Ac]Ac-DOTA-TATE,"[2]; Dextran 0% w/w, 72 hours, 100 mM sodium ascorbate, 0.05 mg/ml DTPA, saline, pH 5.80, 25° C.",97.77%
same,Percentage of ^225Ac present in [^225Ac]Ac-DOTA-TATE,"[2]; Dextran 0% w/w, 96 hours, 100 mM sodium ascorbate, 0.05 mg/ml DTPA, saline, pH 5.80, 25° C.",97.13%
same,Percentage of ^225Ac present in [^225Ac]Ac-DOTA-TATE,"[2]; Dextran 0% w/w, 120 hours, non-homogeneous sampling, 100 mM sodium ascorbate, 0.05 mg/ml DTPA, saline, pH 5.80, 25° C.",98.09* %
same,Percentage of ^225Ac present in [^225Ac]Ac-DOTA-TATE,"[2]; Dextran 0% w/w, 144 hours, 100 mM sodium ascorbate, 0.05 mg/ml DTPA, saline, pH 5.80, 25° C.",94.64%
same,Percentage of ^225Ac present in [^225Ac]Ac-DOTA-TATE,"[2]; Dextran 3% w/w, 0 hour, 100 mM sodium ascorbate, 0.05 mg/ml DTPA, saline, pH 5.80, 25° C.",99.86%
same,Percentage of ^225Ac present in [^225Ac]Ac-DOTA-TATE,"[2]; Dextran 3% w/w, 24 hours, 100 mM sodium ascorbate, 0.05 mg/ml DTPA, saline, pH 5.80, 25° C.",98.62%
same,Percentage of ^225Ac present in [^225Ac]Ac-DOTA-TATE,"[2]; Dextran 3% w/w, 48 hours, 100 mM sodium ascorbate, 0.05 mg/ml DTPA, saline, pH 5.80, 25° C.",98.48%
same,Percentage of ^225Ac present in [^225Ac]Ac-DOTA-TATE,"[2]; Dextran 3% w/w, 72 hours, 100 mM sodium ascorbate, 0.05 mg/ml DTPA, saline, pH 5.80, 25° C.",97.91%
same,Percentage of ^225Ac present in [^225Ac]Ac-DOTA-TATE,"[2]; Dextran 3% w/w, 96 hours, 100 mM sodium ascorbate, 0.05 mg/ml DTPA, saline, pH 5.80, 25° C.",96.48%
same,Percentage of ^225Ac present in [^225Ac]Ac-DOTA-TATE,"[2]; Dextran 3% w/w, 120 hours, 100 mM sodium ascorbate, 0.05 mg/ml DTPA, saline, pH 5.80, 25° C.",96.67%
same,Percentage of ^225Ac present in [^225Ac]Ac-DOTA-TATE,"[2]; Dextran 3% w/w, 144 hours, 100 mM sodium ascorbate, 0.05 mg/ml DTPA, saline, pH 5.80, 25° C.",95.77%
same,Percentage of ^225Ac present in [^225Ac]Ac-DOTA-TATE,"[2]; Dextran 6% w/w, 0 hour, 100 mM sodium ascorbate, 0.05 mg/ml DTPA, saline, pH 5.80, 25° C.",100%
same,Percentage of ^225Ac present in [^225Ac]Ac-DOTA-TATE,"[2]; Dextran 6% w/w, 24 hours, 100 mM sodium ascorbate, 0.05 mg/ml DTPA, saline, pH 5.80, 25° C.",99.08%
same,Percentage of ^225Ac present in [^225Ac]Ac-DOTA-TATE,"[2]; Dextran 6% w/w, 48 hours, 100 mM sodium ascorbate, 0.05 mg/ml DTPA, saline, pH 5.80, 25° C.",98.83%
same,Percentage of ^225Ac present in [^225Ac]Ac-DOTA-TATE,"[2]; Dextran 6% w/w, 72 hours, 100 mM sodium ascorbate, 0.05 mg/ml DTPA, saline, pH 5.80, 25° C.",98.29%
same,Percentage of ^225Ac present in [^225Ac]Ac-DOTA-TATE,"[2]; Dextran 6% w/w, 96 hours, 100 mM sodium ascorbate, 0.05 mg/ml DTPA, saline, pH 5.80, 25° C.",96.99%
same,Percentage of ^225Ac present in [^225Ac]Ac-DOTA-TATE,"[2]; Dextran 6% w/w, 120 hours, 100 mM sodium ascorbate, 0.05 mg/ml DTPA, saline, pH 5.80, 25° C.",97.00%
same,Percentage of ^225Ac present in [^225Ac]Ac-DOTA-TATE,"[2]; Dextran 6% w/w, 144 hours, 100 mM sodium ascorbate, 0.05 mg/ml DTPA, saline, pH 5.80, 25° C.",96.41%
same,Percentage of ^225Ac present in [^225Ac]Ac-DOTA-TATE,"[2]; Dextran 10% w/w, no L-ascorbate, 0 hour, 25° C.",100%
same,Percentage of ^225Ac present in [^225Ac]Ac-DOTA-TATE,"[2]; Dextran 10% w/w, no L-ascorbate, 24 hours, 25° C.",95.38%
same,Percentage of ^225Ac present in [^225Ac]Ac-DOTA-TATE,"[2]; Dextran 10% w/w, no L-ascorbate, 48 hours, 25° C.",93.36%
same,Percentage of ^225Ac present in [^225Ac]Ac-DOTA-TATE,"[2]; Dextran 10% w/w, no L-ascorbate, 72 hours, 25° C.",89.11%
same,Percentage of ^225Ac present in [^225Ac]Ac-DOTA-TATE,"[2]; Dextran 10% w/w, no L-ascorbate, 96 hours, 25° C.",87.20%
same,Percentage of ^225Ac present in [^225Ac]Ac-DOTA-TATE,"[2]; Dextran 10% w/w, 0 hour, 100 mM sodium ascorbate, 0.05 mg/ml DTPA, saline, pH 5.80, 25° C.",99.67%
same,Percentage of ^225Ac present in [^225Ac]Ac-DOTA-TATE,"[2]; Dextran 10% w/w, 24 hours, 100 mM sodium ascorbate, 0.05 mg/ml DTPA, saline, pH 5.80, 25° C.",99.02%
same,Percentage of ^225Ac present in [^225Ac]Ac-DOTA-TATE,"[2]; Dextran 10% w/w, 48 hours, 100 mM sodium ascorbate, 0.05 mg/ml DTPA, saline, pH 5.80, 25° C.",98.75%
same,Percentage of ^225Ac present in [^225Ac]Ac-DOTA-TATE,"[2]; Dextran 10% w/w, 72 hours, 100 mM sodium ascorbate, 0.05 mg/ml DTPA, saline, pH 5.80, 25° C.",97.83%
same,Percentage of ^225Ac present in [^225Ac]Ac-DOTA-TATE,"[2]; Dextran 10% w/w, 96 hours, 100 mM sodium ascorbate, 0.05 mg/ml DTPA, saline, pH 5.80, 25° C.",96.42%
same,Percentage of ^225Ac present in [^225Ac]Ac-DOTA-TATE,"[2]; Dextran 10% w/w, 120 hours, 100 mM sodium ascorbate, 0.05 mg/ml DTPA, saline, pH 5.80, 25° C.",96.58%
same,Percentage of ^225Ac present in [^225Ac]Ac-DOTA-TATE,"[2]; Dextran 10% w/w, 144 hours, 100 mM sodium ascorbate, 0.05 mg/ml DTPA, saline, pH 5.80, 25° C.",95.37%
same,Percentage of ^225Ac present in [^225Ac]Ac-DOTA-TATE,"[3]; EGCg 0 mg/ml, 0 hour",99.90%
same,Percentage of ^225Ac present in [^225Ac]Ac-DOTA-TATE,"[3]; EGCg 0 mg/ml, 24 hours",99.42%
same,Percentage of ^225Ac present in [^225Ac]Ac-DOTA-TATE,"[3]; EGCg 0 mg/ml, 48 hours",98.73%
same,Percentage of ^225Ac present in [^225Ac]Ac-DOTA-TATE,"[3]; EGCg 0 mg/ml, 72 hours",97.77%
same,Percentage of ^225Ac present in [^225Ac]Ac-DOTA-TATE,"[3]; EGCg 0 mg/ml, 96 hours",97.13%
same,Percentage of ^225Ac present in [^225Ac]Ac-DOTA-TATE,"[3]; EGCg 0 mg/ml, 120 hours, non-homogeneous sampling",98.09* %
same,Percentage of ^225Ac present in [^225Ac]Ac-DOTA-TATE,"[3]; EGCg 0 mg/ml, 144 hours",94.64%
same,Percentage of ^225Ac present in [^225Ac]Ac-DOTA-TATE,"[3]; EGCg 0.5 mg/ml, 0 hour",99.61%
same,Percentage of ^225Ac present in [^225Ac]Ac-DOTA-TATE,"[3]; EGCg 0.5 mg/ml, 24 hours",98.92%
same,Percentage of ^225Ac present in [^225Ac]Ac-DOTA-TATE,"[3]; EGCg 0.5 mg/ml, 48 hours",98.48%
same,Percentage of ^225Ac present in [^225Ac]Ac-DOTA-TATE,"[3]; EGCg 0.5 mg/ml, 72 hours",97.97%
same,Percentage of ^225Ac present in [^225Ac]Ac-DOTA-TATE,"[3]; EGCg 0.5 mg/ml, 96 hours",96.44%
same,Percentage of ^225Ac present in [^225Ac]Ac-DOTA-TATE,"[3]; EGCg 0.5 mg/ml, 120 hours",95.65%
same,Percentage of ^225Ac present in [^225Ac]Ac-DOTA-TATE,"[3]; EGCg 0.5 mg/ml, 144 hours",93.04%
same,Percentage of ^225Ac present in [^225Ac]Ac-DOTA-TATE,"[3]; EGCg 1 mg/ml, 0 hour",99.76%
same,Percentage of ^225Ac present in [^225Ac]Ac-DOTA-TATE,"[3]; EGCg 1 mg/ml, 24 hours",99.14%
same,Percentage of ^225Ac present in [^225Ac]Ac-DOTA-TATE,"[3]; EGCg 1 mg/ml, 48 hours",98.83%
same,Percentage of ^225Ac present in [^225Ac]Ac-DOTA-TATE,"[3]; EGCg 1 mg/ml, 72 hours",98.04%
same,Percentage of ^225Ac present in [^225Ac]Ac-DOTA-TATE,"[3]; EGCg 1 mg/ml, 96 hours",97.15%
same,Percentage of ^225Ac present in [^225Ac]Ac-DOTA-TATE,"[3]; EGCg 1 mg/ml, 120 hours",94.82%
same,Percentage of ^225Ac present in [^225Ac]Ac-DOTA-TATE,"[3]; EGCg 1 mg/ml, 144 hours",95.65%
same,Percentage of ^225Ac present in [^225Ac]Ac-DOTA-TATE,"[3]; EGCg 3 mg/ml, 0 hour",99.81%
same,Percentage of ^225Ac present in [^225Ac]Ac-DOTA-TATE,"[3]; EGCg 3 mg/ml, 24 hours",98.57%
same,Percentage of ^225Ac present in [^225Ac]Ac-DOTA-TATE,"[3]; EGCg 3 mg/ml, 48 hours",98.00%
same,Percentage of ^225Ac present in [^225Ac]Ac-DOTA-TATE,"[3]; EGCg 3 mg/ml, 72 hours",96.55%
same,Percentage of ^225Ac present in [^225Ac]Ac-DOTA-TATE,"[3]; EGCg 3 mg/ml, 96 hours",96.42%
same,Percentage of ^225Ac present in [^225Ac]Ac-DOTA-TATE,"[3]; EGCg 3 mg/ml, 120 hours",96.05%
same,Percentage of ^225Ac present in [^225Ac]Ac-DOTA-TATE,"[3]; EGCg 3 mg/ml, 144 hours",90.71%

# Reference: patent US11819556B2, “Stabilized compositions of radionuclides and uses thereof” (RayzeBio, Inc., priority 2021, dated 2023)
